# Paper PMC5758874 (Nucleic Acids Research, 2017)
# Changes are numbered by the printed parent chain. Names may count otherwise. “And” between values parts separate entries of the source, which are not always exact repeats. Identical values can stand only once. Like-named read-outs stand apart in the source and are kept apart here.
# T1: RcsB M88A (Salmonella enterica serovar Typhimurium, UniProt P58663 1-210, M88A)
# T1 sequence: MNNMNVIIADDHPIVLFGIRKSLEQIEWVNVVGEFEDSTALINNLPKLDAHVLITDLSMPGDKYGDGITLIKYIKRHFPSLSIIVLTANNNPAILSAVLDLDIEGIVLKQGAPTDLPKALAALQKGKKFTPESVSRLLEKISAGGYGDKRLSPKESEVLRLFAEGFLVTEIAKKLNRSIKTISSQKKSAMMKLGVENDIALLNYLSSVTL
# T2: RcsB WT (Salmonella enterica serovar Typhimurium, UniProt P58663 1-210)
# T2 sequence: T1 sequence with A88M
# T3: RcsB K180A (Salmonella enterica serovar Typhimurium, UniProt P58663 1-210, K180A)
# T3 sequence: T1 sequence with A88M, K180A
# T4: RcsB Q185A (Salmonella enterica serovar Typhimurium, UniProt P58663 1-210, Q185A)
# T4 sequence: T1 sequence with A88M, Q185A
# T5: RcsB L202F (Salmonella enterica serovar Typhimurium, UniProt P58663 1-210, L202F)
# T5 sequence: T1 sequence with A88M, L202F
# T6: RcsB H12A (Salmonella enterica serovar Typhimurium, UniProt P58663 1-210, H12A)
# T6 sequence: T1 sequence with H12A, A88M
# T7: RcsB L202D (Salmonella enterica serovar Typhimurium, UniProt P58663 1-210, L202D)
# T7 sequence: T1 sequence with A88M, L202D
# T8: RcsB D56A (Salmonella enterica serovar Typhimurium, UniProt P58663 1-210, D56A)
# T8 sequence: T1 sequence with D56A, A88M
# T9: RcsB A93D (Salmonella enterica serovar Typhimurium, UniProt P58663 1-210, A93D)
# T9 sequence: T1 sequence with A88M, A93D
# B1: P1flhDC (dsDNA)
# DNA 1: CGTCGAATTAGGAAAAATCTTAGGCA
# DNA 2: TGCCTAAGATTTTTCCTAATTCGACG
# B2: rcsA promoter (dsDNA)
# DNA 1: CCTGTTTTACTAAGGTTTATCCGAAAATA
# DNA 2: TATTTTCGGATAAACCTTAGTAAAACAGG
# B3: RcsB from Salmonella enterica serovar Typhimurium (residues 1-210), wild type (natural protein, UniProt P58663 1-210, looked up)
# chain: T1 sequence with A88M
# B4: RcsB M88A variant, incubated with acetylphosphate (natural protein, Salmonella enterica serovar Typhimurium, UniProt P58663 1-210, looked up)
# chain: T1 sequence
# modifications: phosphorylated (D56) by incubation with acetylphosphate; higher level than the WT
# B5: Phosphorylated RcsB from S. Typhimurium (wild type incubated with acetylphosphate) (natural protein, Salmonella enterica serovar Typhimurium, UniProt P58663 1-210, looked up)
# chain: T1 sequence with A88M
# modifications: phosphorylated at D56 by incubation with acetylphosphate (AcP)
# B6: RcsB E170A variant, incubated with acetylphosphate (natural protein, Salmonella enterica serovar Typhimurium, UniProt P58663 1-210, looked up)
# chain: T1 sequence with A88M, E170A
# modifications: phosphorylated (D56) by incubation with acetylphosphate; reduced level against the WT
# B7: RcsB S207C variant (natural protein, Salmonella enterica serovar Typhimurium, UniProt P58663 1-210, looked up)
# chain: T1 sequence with A88M, S207C
# What was measured:
# RcsB M88A = molecular target: T1, RcsB M88A; assay: EMSA
# RcsB WT [1] = molecular target: T2, RcsB WT; assay: EMSA
# RcsB K180A = molecular target: T3, RcsB K180A; assay: EMSA
# RcsB Q185A = molecular target: T4, RcsB Q185A; assay: EMSA
# RcsB L202F = molecular target: T5, RcsB L202F; assay: EMSA
# RcsB H12A = molecular target: T6, RcsB H12A; assay: EMSA
# RcsB L202D = molecular target: T7, RcsB L202D; assay: EMSA
# RcsB D56A = molecular target: T8, RcsB D56A; assay: EMSA
# RcsB A93D = molecular target: T9, RcsB A93D; assay: EMSA
# RcsB WT [2] = molecular target: T2, RcsB WT; assay: EMSA; remark: listed apart in the source
# crystal structure [3] = molecular target: the molecule itself; assay: crystal structure
# SEC = molecular target: the molecule itself; assay: SEC
# crystal structure [4] = molecular target: the molecule itself; assay: crystal structure; remark: listed apart in the source
binder,measurement,setting,value
B1,binding result,RcsB M88A,binds
same,binding result,RcsB WT [1],binds
same,binding result,RcsB K180A,no binding
same,binding result,RcsB Q185A,no binding
same,binding result,RcsB L202F,binds
same,binding result,RcsB H12A,no binding
same,binding result,RcsB L202D,no binding
same,binding result,RcsB D56A,no binding
same,binding result,RcsB A93D,no binding
B2,binding result,RcsB K180A,no binding
same,binding result,RcsB Q185A,no binding
same,binding result,RcsB A93D,no binding
same,binding result,RcsB WT [2],binds
B3,stoichiometry N,crystal structure [3],2
B4,binding result,SEC,binds
B5,stoichiometry N,SEC,2
B6,binding result,SEC,binds
B7,stoichiometry N,crystal structure [4],2 and 6
